Source: publication PMC10007213

Legend:
[1] = target: Dendrorhynchus zhejiangensis ferritin (DzFer) (Dendrorhynchus zhejiangensis); test: crystal structure; Cu^2+-DzFer crystallised (0.2 M sodium citrate, 0.1 M Tris pH 8.5, 30% PEG 400); space group I432; 2.26 Å
[2] = target: Dendrorhynchus zhejiangensis ferritin (DzFer) (Dendrorhynchus zhejiangensis); test: crystal structure; DzFer crystals (0.2 M ammonium sulfate, 0.1 M sodium acetate pH 4.6, 30% PEG MME 2000) soaked 1 min with 100 mM AgNO3; space group I432; 1.90 Å
[3] = target: Dendrorhynchus zhejiangensis ferritin (DzFer) (Dendrorhynchus zhejiangensis); test: native gel or EMSA; Native-PAGE, 6% gel, 4 °C, Tris-glycine pH 8.3; purified tag-free DzFer, also after incubation and dialysis at pH 4, 6, 8, 10, 12, and as Ag^+-DzFer and Cu^2+-DzFer; subunits to 24-mer cage

stoichiometry N [1]: 24
stoichiometry N [2]: 24
stoichiometry N [3]: 24
Substance: Dendrorhynchus zhejiangensis ferritin (DzFer) (natural protein)
